Results reported in publication PMC5325305, “Structural and biochemical studies on Vibrio cholerae Hsp31 reveals a novel dimeric form and Glutathione-independent Glyoxalase activity” (PLoS ONE, 2017).

How the values were obtained:
[1] = system: Cc1cc(=O)oc2cc(NC(=O)[C@H](C)N)ccc12; assay: purified protein; conditions: pH 8.0, 37°C, 20 mM Tris, 1 mM dithiothreitol, 3% dimethyl sulfoxide
CC(=O)C=O = assay: purified protein; conditions: glutathione-independent, 100 mM sodium phosphate pH 7.5, 1 mM EDTA, 1 mM DTT (printed DDT), 37°C, text lists Km and Vmax values in swapped order, assigned by unit

VcHsp31 (Vibrio cholerae)
Km [1]: 112.5 µM
kcat [1]: 0.00128 s⁻¹
Km (CC(=O)C=O): 250.8 µM
kcat (CC(=O)C=O): 0.6628 s⁻¹
